Assay results reported in article PMC5705597, “Molecular architecture of potassium chloride co-transporter KCC2” (Scientific Reports, 2017).

Key:
KCC2 = target: T1, KCC2 (Homo sapiens, UniProt Q9H2X9); assay: SPR (Biacore S200), steady-state Langmuir fit on immobilized purified KCC2; format: binding
T1 construct: gene SLC12A5; N-terminal tagged Flag-Avi-His-KCC2, residues 1–1116 of NP_065759 (human KCC2 isoform 2), purified full length
T1 sequence (Q9H2X9 1-1116 isoform Q9H2X9-2): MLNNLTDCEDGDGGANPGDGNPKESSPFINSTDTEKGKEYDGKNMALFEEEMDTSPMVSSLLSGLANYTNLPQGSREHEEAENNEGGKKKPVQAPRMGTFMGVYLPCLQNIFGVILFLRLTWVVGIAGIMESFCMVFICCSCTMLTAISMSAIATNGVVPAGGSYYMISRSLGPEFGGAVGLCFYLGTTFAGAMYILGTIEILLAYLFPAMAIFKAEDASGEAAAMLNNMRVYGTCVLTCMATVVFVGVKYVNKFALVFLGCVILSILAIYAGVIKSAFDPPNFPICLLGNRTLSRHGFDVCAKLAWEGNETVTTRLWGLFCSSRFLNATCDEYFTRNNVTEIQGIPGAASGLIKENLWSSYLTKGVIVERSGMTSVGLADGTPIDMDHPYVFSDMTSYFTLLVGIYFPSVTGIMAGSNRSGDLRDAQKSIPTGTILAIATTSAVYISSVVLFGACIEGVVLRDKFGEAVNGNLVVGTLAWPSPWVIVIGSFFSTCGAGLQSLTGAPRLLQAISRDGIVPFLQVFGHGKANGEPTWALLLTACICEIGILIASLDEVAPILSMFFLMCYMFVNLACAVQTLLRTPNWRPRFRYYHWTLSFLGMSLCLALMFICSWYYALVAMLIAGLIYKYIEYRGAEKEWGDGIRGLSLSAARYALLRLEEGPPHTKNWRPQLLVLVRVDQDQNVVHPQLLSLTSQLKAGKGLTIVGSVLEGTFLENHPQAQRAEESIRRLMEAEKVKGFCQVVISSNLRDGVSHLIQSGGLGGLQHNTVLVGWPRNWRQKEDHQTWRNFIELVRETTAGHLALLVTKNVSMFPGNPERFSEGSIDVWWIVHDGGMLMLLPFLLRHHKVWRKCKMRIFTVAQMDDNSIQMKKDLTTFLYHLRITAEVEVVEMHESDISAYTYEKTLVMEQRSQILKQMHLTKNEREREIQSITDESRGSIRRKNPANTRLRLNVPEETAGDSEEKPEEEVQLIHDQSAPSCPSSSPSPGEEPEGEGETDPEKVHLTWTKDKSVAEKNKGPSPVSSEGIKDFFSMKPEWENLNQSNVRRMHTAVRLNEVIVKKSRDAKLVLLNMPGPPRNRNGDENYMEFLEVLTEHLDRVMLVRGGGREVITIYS
Excerpt: SPR (Biacore S200), steady-state Langmuir fit on immobilized purified KCC2 on KCC2 | Concentration-dependent binding of VU0463271 (blue diamonds) and non-specific control compound (red circles) on immobilized purified KCC2.

[1] = target: Flag-Avi-His-KCC2 (human potassium chloride co-transporter KCC2, N-terminally tagged) (human) (UniProt Q9H2X9); assay: negative stain electron microscopy; gel filtration fractions of KCC2 monomers and dimers, 40 µg/ml in PBS, CALX-R3 1.5 mM, DDM 0.6 mM; 2% uranyl acetate; 2-D classes and 3-D models
[2] = target: Flag-Avi-His-KCC2 (human potassium chloride co-transporter KCC2, N-terminally tagged) (human) (UniProt Q9H2X9); assay: SEC; 50 µl purified KCC2 at 1 mg/ml on Superdex 200 Increase 5/150 GL, PBS, CALX-R3 1.5 mM, DDM 0.6 mM; fractions analysed by Clear Native PAGE and Western blot
[3] = target: Flag-Avi-His-KCC2 (human potassium chloride co-transporter KCC2, N-terminally tagged) (human) (UniProt Q9H2X9); assay: cross-linking; purified KCC2 (5 µg) with glutaraldehyde 0-0.1% for 30 min at 4 °C, with or without DTT; SDS-PAGE and Western blot
[4] = target: Flag-Avi-His-KCC2 (human potassium chloride co-transporter KCC2, N-terminally tagged) (human) (UniProt Q9H2X9); assay: native gel or EMSA; purified KCC2 in CALX-R3/DDM on 4-15% Clear Native PAGE (cathode buffer 7.5 mM imidazole, 0.05% deoxycholate, 0.01% DDM), 4 °C, Western blot with KCC2 antibody; with or without a freeze-thaw cycle
[5] = target: T2, recombinant mouse KCC2 (mouse), Q91V14; assay: as above; settings: remark: other sources report otherwise
T2 chain: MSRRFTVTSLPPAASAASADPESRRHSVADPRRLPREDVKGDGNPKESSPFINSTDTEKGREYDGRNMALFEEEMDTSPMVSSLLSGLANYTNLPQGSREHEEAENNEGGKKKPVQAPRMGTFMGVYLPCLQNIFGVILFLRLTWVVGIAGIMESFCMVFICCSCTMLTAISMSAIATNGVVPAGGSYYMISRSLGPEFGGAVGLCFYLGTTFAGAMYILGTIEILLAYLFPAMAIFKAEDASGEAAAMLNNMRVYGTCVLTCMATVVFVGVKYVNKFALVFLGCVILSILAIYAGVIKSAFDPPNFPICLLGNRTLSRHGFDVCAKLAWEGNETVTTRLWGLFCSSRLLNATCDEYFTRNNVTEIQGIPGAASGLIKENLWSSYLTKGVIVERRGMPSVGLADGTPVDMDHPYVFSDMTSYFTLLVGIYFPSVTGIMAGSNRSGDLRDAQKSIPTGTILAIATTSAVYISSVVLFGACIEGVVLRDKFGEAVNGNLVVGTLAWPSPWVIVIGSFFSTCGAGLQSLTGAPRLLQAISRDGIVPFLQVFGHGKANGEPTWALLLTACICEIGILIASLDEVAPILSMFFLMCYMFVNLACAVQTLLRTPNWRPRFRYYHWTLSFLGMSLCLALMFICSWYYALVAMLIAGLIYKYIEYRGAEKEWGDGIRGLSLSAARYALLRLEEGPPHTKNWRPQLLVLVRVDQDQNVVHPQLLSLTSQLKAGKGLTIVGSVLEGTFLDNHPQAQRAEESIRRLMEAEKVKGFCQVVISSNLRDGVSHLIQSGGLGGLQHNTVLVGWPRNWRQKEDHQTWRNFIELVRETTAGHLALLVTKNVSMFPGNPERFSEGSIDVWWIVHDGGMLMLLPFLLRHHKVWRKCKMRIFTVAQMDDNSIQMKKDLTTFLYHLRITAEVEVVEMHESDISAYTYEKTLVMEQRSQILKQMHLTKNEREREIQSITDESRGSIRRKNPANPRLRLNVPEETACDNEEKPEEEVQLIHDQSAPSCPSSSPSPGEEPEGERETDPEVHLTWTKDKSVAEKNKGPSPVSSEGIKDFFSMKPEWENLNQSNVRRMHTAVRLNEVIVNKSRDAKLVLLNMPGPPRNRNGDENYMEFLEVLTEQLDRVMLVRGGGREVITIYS

Cc1csc(N(C(=O)CSc2ccc(-c3ccccc3)nn2)C2CC2)n1 [VU0463271]
Kd (KCC2): 3 ± 2 µM

Flag-Avi-His-KCC2 (human potassium chloride co-transporter KCC2, N-terminally tagged) (from UniProt Q9H2X9-2 1-1116) (natural protein)
stoichiometry N [1]: 2
stoichiometry N [2]: 2
stoichiometry N [3]: 2
stoichiometry N [4]: 2

B1: recombinant mouse KCC2, Q91V14 1-1138 (natural protein)
chain: MSRRFTVTSLPPAASAASADPESRRHSVADPRRLPREDVKGDGNPKESSPFINSTDTEKGREYDGRNMALFEEEMDTSPMVSSLLSGLANYTNLPQGSREHEEAENNEGGKKKPVQAPRMGTFMGVYLPCLQNIFGVILFLRLTWVVGIAGIMESFCMVFICCSCTMLTAISMSAIATNGVVPAGGSYYMISRSLGPEFGGAVGLCFYLGTTFAGAMYILGTIEILLAYLFPAMAIFKAEDASGEAAAMLNNMRVYGTCVLTCMATVVFVGVKYVNKFALVFLGCVILSILAIYAGVIKSAFDPPNFPICLLGNRTLSRHGFDVCAKLAWEGNETVTTRLWGLFCSSRLLNATCDEYFTRNNVTEIQGIPGAASGLIKENLWSSYLTKGVIVERRGMPSVGLADGTPVDMDHPYVFSDMTSYFTLLVGIYFPSVTGIMAGSNRSGDLRDAQKSIPTGTILAIATTSAVYISSVVLFGACIEGVVLRDKFGEAVNGNLVVGTLAWPSPWVIVIGSFFSTCGAGLQSLTGAPRLLQAISRDGIVPFLQVFGHGKANGEPTWALLLTACICEIGILIASLDEVAPILSMFFLMCYMFVNLACAVQTLLRTPNWRPRFRYYHWTLSFLGMSLCLALMFICSWYYALVAMLIAGLIYKYIEYRGAEKEWGDGIRGLSLSAARYALLRLEEGPPHTKNWRPQLLVLVRVDQDQNVVHPQLLSLTSQLKAGKGLTIVGSVLEGTFLDNHPQAQRAEESIRRLMEAEKVKGFCQVVISSNLRDGVSHLIQSGGLGGLQHNTVLVGWPRNWRQKEDHQTWRNFIELVRETTAGHLALLVTKNVSMFPGNPERFSEGSIDVWWIVHDGGMLMLLPFLLRHHKVWRKCKMRIFTVAQMDDNSIQMKKDLTTFLYHLRITAEVEVVEMHESDISAYTYEKTLVMEQRSQILKQMHLTKNEREREIQSITDESRGSIRRKNPANPRLRLNVPEETACDNEEKPEEEVQLIHDQSAPSCPSSSPSPGEEPEGERETDPEVHLTWTKDKSVAEKNKGPSPVSSEGIKDFFSMKPEWENLNQSNVRRMHTAVRLNEVIVNKSRDAKLVLLNMPGPPRNRNGDENYMEFLEVLTEQLDRVMLVRGGGREVITIYS
stoichiometry N [5]: 2
